Results as given in the supplement of paper PMC10724198.
± gives the standard deviation of the averaged measurements.

How the values were obtained:
[1] = system: Saccharomyces cerevisiae; test: protein stability index of tFT-peptide fusion (C-terminal peptide) (PSI (0-1 scale)); higher = more stable (slower turnover)
Experimental: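 MPS profiling in S. cerevisiae of the tFT-X12 degron library: putative degron peptides plus stable controls, 12 aa, fused to the C-terminus of a sfGFP-mCherry timer. Cells are FACS-sorted into 8 mCherry/sfGFP bins and deep-sequenced. PSI runs from 0 (unstable) to 1 (stable). Backgrounds are wild type, das1Δ and doa10Δ at 30 °C, and wild type, das1Δ, cdc34-1 and cdc53-1 at 37 °C; 2-3 technical replicates each.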

[2] = system: Saccharomyces cerevisiae; test: as above; details: genetic background: wild type; temperature: 30 C
[3] = genetic background: cdc34-1, temperature: 37 C
[4] = genetic background: cdc53-1, temperature: 37 C
[5] = genetic background: das1 deletion, temperature: 30 C
[6] = genetic background: das1 deletion, temperature: 37 C
[7] = genetic background: doa10 deletion, temperature: 30 C
[8] = genetic background: wild type, temperature: 30 C
[9] = genetic background: wild type, temperature: 37 C
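Note: PSI is a weighted mean of sequencing reads over stability bins, variants kept only with over 10 reads, mCherry proximal and sfGFP distal, peptide attached via GGGS linker.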

Sequence	protein stability index [1, 3]	protein stability index [1, 4]	protein stability index [1, 5]	protein stability index [1, 6]	protein stability index [1, 7]	protein stability index [1, 8]	protein stability index [1, 9]	protein stability index [2]
DVYIVLFIIKHG	0.309 ± 0.052	0.395 ± 0.022	0.261 ± 0.052	0.4415 ± 0.0025	0.173 ± 0.0021	0.175 ± 0.034	0.3 ± 0.0092	0.241 ± 0.055
HLYITGIIRKIT	0.519 ± 0.027	0.619 ± 0.11	0.668 ± 0.054	0.695 ± 0.016	0.0875 ± 0.0033	0.165 ± 0.024	0.126 ± 0.029	0.179 ± 0.036
VWLFSWSVVGGT	0.436 ± 0.037	0.5425 ± 0.0026	0.369 ± 0.017	0.523 ± 0.012	0.369 ± 0.014	0.376 ± 0.0048	0.5069 ± 0.00074	0.433 ± 0.02
IVTSFVSPVYIC	0.396 ± 0.035	0.5353 ± 0.003	0.456 ± 0.017	0.634 ± 0.055	0.0637 ± 0.023	0.0746 ± 0.014	0.0794 ± 0.021	0.12 ± 0.029
FILLTLVFGCAS	0.188 ± 0.0054	0.313 ± 0.025	0.228 ± 0.02	0.424 ± 0.0066	0.196 ± 0.0089	0.22 ± 0.035	0.375 ± 0.0071	0.309 ± 0.025
SWGRGADRWRRA	0.645 ± 0.042	0.7218 ± 0.0025	0.649 ± 0.017	0.7267 ± 0.0056	0.156 ± 0.019	0.195 ± 0.016	0.4725 ± 0.0013	0.319 ± 0.056
MALAVRVVVCGA	0.0333 ± 0.0083	0.0649 ± 0.022	0.125 ± 0.025	0.131 ± 0.0024	0.0868 ± 0.014	0.107 ± 0.02	0.107 ± 0.021	0.184 ± 0.043
PPRPLHPPCRPP	0.64 ± 0.021	0.6975 ± 0.00072	0.66 ± 0.033	0.6943 ± 0.0015	0.659 ± 0.024	0.657 ± 0.013	0.688 ± 0.011	0.702 ± 0.013
FGVECDLCLFCC	0.617 ± 0.07	0.6837 ± 0.0031	0.572 ± 0.0088	0.692 ± 0.03	0.2392 ± 0.0022	0.257 ± 0.014	0.46 ± 0.015	0.376 ± 0.018
QYRLMQKKIVNI	0.644 ± 0.022	0.743 ± 0.048	0.647 ± 0.015	0.718 ± 0.014	0.119 ± 0.013	0.147 ± 0.024	0.253 ± 0.015	0.229 ± 0.059
LSPLPSPLILVV	0.116 ± 0.08	0.16 ± 0.021	0.201 ± 0.0086	0.228 ± 0.0065	0.14761 ± 5.3e-05	0.191 ± 0.034	0.182 ± 0.022	0.284 ± 0.014
VGKGAGVRDGSR	0.693 ± 0.068	0.751 ± 0.019	0.623 ± 0.0077	0.7598 ± 0.0072	0.651 ± 0.017	0.645 ± 0.011	0.713 ± 0.016	0.707 ± 0.026
FLLELRFTCSYS	0.383 ± 0.026	0.454 ± 0.021	0.407 ± 0.014	0.4415 ± 0.00066	0.403 ± 0.013	0.406 ± 0.023	0.4158 ± 0.0028	0.431 ± 0.013
CVVFLWCGGCWV	0.475 ± 0.013	0.584 ± 0.0059	0.346 ± 0.044	0.725 ± 0.085	0.344 ± 0.023	0.331 ± 0.03	0.734 ± 0.041	0.503 ± 0.076
FWVNFLFVLFIL	0.257 ± 0.023	0.233 ± 0.018	0.261 ± 0.036	0.4 ± 0.027	0.263 ± 0.005	0.197 ± 0.022	0.307 ± 0.02	0.296 ± 0.049
FGVVRVSIPVGV	0.211 ± 0.024	0.203 ± 0.02	0.227 ± 0.038	0.3584 ± 0.0023	0.184 ± 0.005	0.233 ± 0.024	0.316 ± 0.007	0.368 ± 0.012
LSSIIRFLIFCL	0.496 ± 0.024	0.532 ± 0.015	0.495 ± 0.024	0.5964 ± 0.0026	0.398 ± 0.031	0.366 ± 0.0049	0.469 ± 0.0062	0.404 ± 0.013
CCGWSGCVSGVL	0.698 ± 0.029	0.7602 ± 0.0038	0.638 ± 0.014	0.7418 ± 0.0014	0.651 ± 0.012	0.657 ± 0.02	0.74 ± 0.024	0.717 ± 0.018
FPLGAQTWLCLS	0.645 ± 0.084	0.714 ± 0.012	0.609 ± 0.018	0.729 ± 0.022	0.199 ± 0.0021	0.24 ± 0.032	0.466 ± 0.036	0.318 ± 0.0065
